Laboratory results as given in patent US11692025 (UNIVERSITY COURT OF THE UNIVERSITY OF ABERDEEN, dated 2023).

molecular target: T1, human serum albumin (human, UniProt P02768 25-609); test: phage display panning on HSA and screening
T1 construct: also called HSA; HAS

| binding result | Binder |
| --- | --- |
| binds | SEQ ID NO 33 (VNAR, clone name not tied to this number) VNAR: ARVDQTPRTATKETGESLTINCVLTDTSYPLYSTYWYRKNPGSSNKEQISISGRYVESVNKGTKSFSLRIKDLTVADSATYICRAMGTDSWTGDGAGTVLTVN |
| binds | SEQ ID NO 39 (VNAR, clone name not tied to this number) VNAR: TRVDQTPRTATKETGESLTINCVLTDTSYPLYSTYWYRKNPGSSNKERISISGRYVESVNKGTKSFSLRIKDLTVADSATYICRAMGTDSWTGDGAGTVLTVN |
| binds | SEQ ID NO 43 (VNAR, clone name not tied to this number) VNAR: TRVDQTPRTATKETGESLTINCVLTDTSYPLYSTYWYRKNPGSSNKERISISGRYVESVNKGTKSFSLRIKDLTVADSATYICRAMGTDSWTGDGAGTALTVN |
| binds | SEQ ID NO 35 (VNAR, clone name not tied to this number) VNAR: TRVDQTPRTATKETGESLTINCVLTDTSYPLYSTYWYRKNPGSSNKEQISISGRYVESVNKGTKSFSLRIKDLTVADSATYICRAMGTNSWTGDGAGTALTVN |
| binds | SEQ ID NO 38 (VNAR, clone name not tied to this number) VNAR: TRVDQTPRTATKETGESLTINCVLTDTSYPLYRTYWYRKNPGSSNKEQISISGRYVESVNKGTKSFSLRIKDLTVADSATYICRAMGTDSWTGDGAGTVLTVN |
| binds | SEQ ID NO 48 (VNAR, clone name not tied to this number) VNAR: ASVNQTPRTATKETGESLTINCVLTDTSYPLYSTYWYRKNPGSSNKEQISISGRYVESVNKGTKSFSLRIKDLTVADSATYICRAMDTSAGVVDGAGTVLTVN |
| binds | SEQ ID NO 49 (VNAR, clone name not tied to this number) VNAR: AKVDQTPRTATKETGESLTINCVLTDTSYPLYSTYWYRKNPGSSNKEQISISGRYVESVNKGTKSFSLRIKDLTVADSATYICRAMGTDSWTGDGAGTVLTVN |
| binds | SEQ ID NO 42 (VNAR, clone name not tied to this number) VNAR: TRVDQTPRTATKETGESLTINCVLTDTSYPLYRTYWYRKNPGSSNKEQISISGRYVESVNKGTKSFSLRIKDLTVADSATYICRAMGTNSWTGDGAGTVLTVN |
| binds | SEQ ID NO 44 (VNAR, clone name not tied to this number) VNAR: TRVDQTPRTATKETGESLTINCVLTDTSYPLYSTYWYRKNPGSSNKERISISGRYVESVNKGTKSFSLRIKDLTVADSATYICRAMGTNIWTGDGAGTVLTVN |
| binds | SEQ ID NO 40 (VNAR, clone name not tied to this number) VNAR: TRVDQTPRTATKETGESLTINCVLTDTSYPLYSTYWYRKNPGSSNKERISISGRYVESVNKGTKSFSLRIKDLTVADSATYICRAMGTNSWTGDGAGTALTVN |
| binds | SEQ ID NO 50 (VNAR, clone name not tied to this number) VNAR: ASVNQTPRTATKETGESLTINCVLTDTSYPLYSTYWYRKNPGSSNKERISISGRYVESVNKGTKSFSLRIKDLTVADSATYICRAMGTDSWTGDGAGTVLTVN |

molecular target: T1, human serum albumin; test: screening of the unselected immunized library on HSA

| binding result | Binder |
| --- | --- |
| binds | SEQ ID NO 58 (VNAR, clone name not tied to this number; one of the 13 entries may be a consensus) VNAR: TRVDQTPRTATKETGESLTINCVLTDTSYPLYSTYWYRKNPGSSNKEQISISGRYVESVNKGTKSFSLRIKDLTVADSATYICRAYTPGREDYGAGTVLTVN |
| binds | SEQ ID NO 57 (VNAR, clone name not tied to this number; one of the 13 entries may be a consensus) VNAR: AKVDQTPRTTTKETGESLTINCVLTETSYGLSSTSWFQKNPGTTDWERMSIGGRYVESVNTGAKSFSLRIKDLTVADSATYYCKAHAGYGVWNRGLQWRGYDQYDGAGTVLTVN |
| binds | SEQ ID NO 60 (VNAR, clone name not tied to this number; one of the 13 entries may be a consensus) VNAR: ASVNQTPRTATKETGESLTINCVLTGTSCSLYSTSWFRKNPGTTDWERISIGGRYVESVNKGAKSFSLRIKDLTVADSATYYCKAEKGRKGSAITSCRRSSYYDGAGTVLTVN |
| binds | SEQ ID NO 52 (VNAR, clone name not tied to this number; one of the 13 entries may be a consensus) VNAR: IRVDQTPRTATKETGESLTINCVLTGTVCGMYSTSWSRKNPGRADWERISIGGRYVESVNKGAKSFSLRIRDLTVADSATYCCSAESPPICTSQGIAAVTKYYDGAGTVLTVN |
| binds | SEQ ID NO 61 (VNAR, clone name not tied to this number; one of the 13 entries may be a consensus) VNAR: ARVDQTPRTATKETGESLTINCVLTDTSYPLYSTYWYRKNPGSSNKEQISISGRYVESVNKGTKSFSLRIKDLTVADSGTYICRSITTHSWSGDGAGTALTVN |
| binds | SEQ ID NO 55 (VNAR, clone name not tied to this number; one of the 13 entries may be a consensus) VNAR: ARVDQTPRTATKETGESLTINCVLTDTSYPLYSTYWYRKNPGSPNKERISISGRYVESVNKGTKSFSLRIKDLTVADSATYICRAMGANSWTGDGAGTALTVN |
| binds | SEQ ID NO 59 (VNAR, clone name not tied to this number; one of the 13 entries may be a consensus) VNAR: ARVDQTPRTATKETGESLTINCVLADTSYPLYSTYWYRKNPGSSNKEQISISGRYVESVNKGTKSFSLRIKDLTVADSATYICRASDIAMGTYDGAGTALTVN |
| binds | SEQ ID NO 53 (VNAR, clone name not tied to this number; one of the 13 entries may be a consensus) VNAR: ARVDQTPRTATKETGESLTINCVLTDTSYPLYSTYWYRKNPGSSNKEQISISGRYVESVNKGTKSFSLRIKDLTVADSATYICRAITTDSWTSDGAGTALTVN |
| binds | SEQ ID NO 56 (VNAR, clone name not tied to this number; one of the 13 entries may be a consensus) VNAR: ASVNQTPRTATKETGESLTINCVLTDASYPLYSTYWYRKNPGSSNKEQIPISGRYVESVNKGTKSFSLRIKDLTVADSATYICRAMGTNGWTGDGAGTVLTVN |
| binds | SEQ ID NO 63 (VNAR, clone name not tied to this number; one of the 13 entries may be a consensus) VNAR: ASVNQTPRTATKETGESLTINCVLTDTSYPLYSTYWYRKNPGSSNKEQIPISGRYVESVNKGTKSFSLRIKDLTVADSATYICRAMDTSAGVVDGAGTVLTVN |
| binds | SEQ ID NO 62 (other, clone name not tied to this number; one of the 13 entries may be a consensus) IRVDQTPRTATKETGGSLTINCVLTDTSYPLYSTYWYRKNPGSSNKEQISISGRYVESVNKGTKSFSLRIKDLTVADSATYICRALSTYMEAGDGAGTVLTVN |
| binds | SEQ ID NO 54 (VNAR, clone name not tied to this number; one of the 13 entries may be a consensus) VNAR: ARVDQTPRTATKETGESLTINCVLTDTSYPLYSTYWYRKNPGSSNKEQISISGRYVESVNKGTKSFSLRIKDLTVADSATYICRAYTIHIKLEQHGAGTVLTVN |
